From patent US20230330251A1, “METHODS FOR TREATING CANCERS WITH ANTIBODY DRUG CONJUGATES (ADC) THAT BIND TO 191P4D12 PROTEINS” (AGENSYS, INC., priority 2020, published 2023)

Columns and labels:
[1] = tested on: subjects with previously treated locally advanced or metastatic urothelial cancer; conditions: in vivo
Text: The Safety Analysis Set (SAF) will be used for the safety analysis. All subjects who are randomized and received study drug will be included in the SAF. The frequency of AEs and the serious AEs will be summarized by MedDRA system organ class and preferred term. In addition, summary statistics will be provided for the following safety parameters: • Laboratory values • Vital sign measurements • ECOG PS
An AE is any untoward medical occurrence in a subject, temporally associated with the use of a medicinal product, whether or not considered related to the medicinal product. An AE can therefore be any unfavorable and unintended sign (including an abnormal laboratory finding), symptom, or disease (new or exacerbated) temporally associated with the use of a medicinal product.
AEs, including abnormal clinical laboratory values, will be graded using the NCI-CTCAE guidelines (Version 4.03).
The safety analysis set (SAF), which consists of all subjects who received any amount of study drug, will be used for safety analyses.
SAF was used to perform all safety analysis. All treated subjects were analyzed according to the treatment they received.
The number and percentage of AEs by severity were also summarized. All AEs were listed.
A study drug-related TEAE is defined as any TEAE with a causal relationship of YES by the investigator. AEs of interest as classified by customized MedDRA queries and/or standard MedDRA queries were also summarized.

[2] = tested on: subjects with previously treated locally advanced or metastatic urothelial cancer; assay: EV-301: overall response rate, complete/partial response, disease control rate per RECIST V1.1 (response evaluable set); type: in vivo, human
Text: Subjects will be evaluated for response according to the RECIST V1.1. Imaging for both arms will be performed at baseline and every 56 days (±7 days) from the first dose of study treatment throughout the study until PFS1 is documented by radiological disease progression or the subject is lost to follow-up, death, withdraws study consent or starts a subsequent anti-cancer therapy.
CR is defined as disappearance of all target and nontarget lesions. Any pathological lymph nodes (whether target or nontarget) must have reduction in short axis to <10 mm from baseline measurement.
PR is defined as at least a 30% decrease in the sum of diameters (longest for nonnodal lesions, short axis for nodal lesions) of target lesions taking as reference to the baseline sum of diameters.
SD is defined as neither sufficient decrease to qualify for PR nor sufficient increase to qualify for progressive disease taking as reference the smallest sum of diameters while on study drug.
PD is defined as at least a 20% increase in the sum of diameters (longest for nonnodal lesions, short axis for nodal lesions) of the target lesions taking as reference the smallest sum on study (this includes the baseline sum if that is the smallest on study). […] The appearance of 1 or more new lesions is also considered progression.
The response evaluable set (RES) is defined as all subjects in FAS and with measurable disease at baseline and had at least 6 months follow up since randomization. RES will be used for primary efficacy analysis of response related endpoints, e.g., ORR and DCR.
The overall response rate (ORR) is defined as the proportion of subjects with complete or partial objective response based on the RECIST V1.1. The comparison of ORR between Arm A and Arm B was performed using a stratified CMH test. Same stratification factors used in time to event analyses will be used for the stratified CMH test. […] In addition, ORR for each arm was estimated and corresponding 95% confidence interval will be constructed. The primary analysis was performed using the RES.
The DCR is defined as the proportion of subjects with a complete or partial objective response or a stable disease based on RECIST V1.1. The comparison of DCR between Arm A and Arm B was performed using a stratified CMH test. Same stratification factors used in time to event analyses were used for the stratified CMH test. […] In addition, DCR for each arm was estimated and corresponding 95% confidence interval will be constructed. The primary analysis was performed using the RES.

[3] = All, Response-Evaluable Population

With enfortumab vedotin the “Death, %” value [1] was “(43.9%)”, the “Drug-Related Serious TEAE, %” value [1] was “(22.6%)” and the “Drug-Related TEAE Leading to Death, %” value [1] was “(2.4%)”. For the same substance, the “Drug-Related TEAE Leading to Death, Exclusing Disease Progression, %” value [1] was “(2.4%)”, the “Drug-Related TEAE Leading to Withdrawal of Treatment, %” value [1] was “(13.5%)” and the “Drug-Related TEAE with CTCAE Grade >=3, %” value [1] was “(51.4%)”. For the same substance, the “Drug-Related TEAE, %” value [1] was “(93.9%)”, the “Serious TEAE, %” value [1] was “(46.6%)” and the “TEAE Leading to Death, %” value [1] was “(7.1%)”. For the same substance, the “TEAE Leading to Death, Exclusing Disease Progression, %” value [1] was “(3.7%)”, the “TEAE Leading to Withdrawal of Treatment, %” value [1] was “(17.2%)” and the “TEAE Leading to dose interruption, %” value [1] was “(60.8) %”. The “TEAE Leading to dose reduction, %” value [1] was “(34.1) %”, the “TEAE with CTCAE Grade >=3, %” value [1] was “(70.9%)” and the “TEAE, %” value [1] was “(98.0%)”. For the same substance, the “TEAE: Alopecia, %” value [1] was “(47.0) %”, the “TEAE: Anemia, %” value [1] was “(19.9) %” and the “TEAE: Constipation, %” value [1] was “(27.7) %”. The “TEAE: Decreased appetite, %” value [1] was “(40.9) %”, the “TEAE: Diarrhea, %” value [1] was “(34.8) %” and the “TEAE: Dysgeusia, %” value [1] was “(25.0) %”. The “TEAE: Fatigue, %” value [1] was “(36.1) %”, the “TEAE: Nausea, %” value [1] was “(30.1) %” and the “TEAE: Peripheral sensory neuropathy, %” value [1] was “(34.5) %”. The “TEAE: Pruritis, %” value [1] was “(34.5) %”, the “TEAE: Pyrexia, %” value [1] was “(22.0) %” and the “TRAE Leading to dose interruption: Anemia, %” value [1] was “(2.7) %”. For the same substance, the “TRAE Leading to dose interruption: Asthenia, %” value [1] was “(2.0) %”, the “TRAE Leading to dose interruption: Diarrhea, %” value [1] was “(2.0) %” and the “TRAE Leading to dose interruption: Drug eruption, %” value [1] was “(2.4) %”. For the same substance, the “TRAE Leading to dose interruption: Fatigue, %” value [1] was “(5.4) %”, the “TRAE Leading to dose interruption: Neuropathy peripheral, %” value [1] was “(3.0) %” and the “TRAE Leading to dose interruption: Neutropenia, %” value [1] was “(2.0) %”. For the same substance, the “TRAE Leading to dose interruption: Neutrophil count decreased, %” value [1] was “(5.1) %”, the “TRAE Leading to dose interruption: Peripheral sensory neuropathy, %” value [1] was “(15.5) %” and the “TRAE Leading to dose interruption: Rash maculo-papular, %” value [1] was “(4.4) %”. For the same substance, the “TRAE Leading to dose interruption: Rash, %” value [1] was “(3.4) %”, the “TRAE Leading to dose reduction: Decreased appetite, %” value [1] was “(3.4) %” and the “TRAE Leading to dose reduction: Fatigue, %” value [1] was “(2.7) %”. The “TRAE Leading to dose reduction: Neutropenia, %” value [1] was “(1.7) %”, the “TRAE Leading to dose reduction: Neutrophil count decreased, %” value [1] was “(2.0) %” and the “TRAE Leading to dose reduction: Peripheral sensory neuropathy, %” value [1] was “(7.1) %”. The “TRAE Leading to dose reduction: Rash maculo-papular, %” value [1] was “(4.4) %”, the “TRAE Leading to dose withdrawal: Peripheral sensory neuropathy, %” value [1] was “(2.4) %” and the “ORR, EV vs SC Absolute Difference” value [2, 3] was 22.7%. For the same substance, the “Overall response rate (ORR), %” value [2, 3] was 40.6%, the “Overall response rate (ORR), n/N” value [2, 3] was 117/288 and the “Best overall response: Complete response, %” value ([2]; RECIST v1.1, RES) was “(4.9) %”. The “Best overall response: Not evaluable, %” value ([2]; RECIST v1.1, RES) was “(12.8) %”, the “Best overall response: Partial response, %” value ([2]; RECIST v1.1, RES) was “(35.8) %” and the “Best overall response: Progressive disease, %” value ([2]; RECIST v1.1, RES) was “(15.3) %”. For the same substance, the “Best overall response: Stable disease, %” value ([2]; RECIST v1.1, RES) was “(31.3) %”, the “Time to response, Median” value ([2]; RES) was 1.87 months and the “Overall Response Rate (ORR), Confirmed, %” value ([2]; RES, investigator assessment, N = 288 EV, 296 chemotherapy) was “(40.6%)”. The “Disease control rate, Patients, %” value ([2]; RES, N = 288 EV, 296 chemotherapy) was “(71.9%)”, the “complete response, number of patients” value ([2]; of 288 (enfortumab vedotin) / of 296 (chemotherapy)) was 14 and the Disease control ([2]; response-evaluable population) was 71.9%. For the same substance, the “complete response, % of the patients” value ([2]; response-evaluable population) was 4.9%.
